In patent publication US12441790B2, “Binding proteins to the human thrombin receptor, PAR4” (MONASH UNIVERSITY, priority 2017, dated 2025):
One block for each molecule: values may come before it.

Key:
PAR1 = molecular target: T1, PAR1 (Homo sapiens, UniProt P25116); settings: in combination with single or dual antiplatelet therapy; cited from earlier work
T1 construct: host or cells: patients in clinical trials
T1 sequence (P25116 22-425): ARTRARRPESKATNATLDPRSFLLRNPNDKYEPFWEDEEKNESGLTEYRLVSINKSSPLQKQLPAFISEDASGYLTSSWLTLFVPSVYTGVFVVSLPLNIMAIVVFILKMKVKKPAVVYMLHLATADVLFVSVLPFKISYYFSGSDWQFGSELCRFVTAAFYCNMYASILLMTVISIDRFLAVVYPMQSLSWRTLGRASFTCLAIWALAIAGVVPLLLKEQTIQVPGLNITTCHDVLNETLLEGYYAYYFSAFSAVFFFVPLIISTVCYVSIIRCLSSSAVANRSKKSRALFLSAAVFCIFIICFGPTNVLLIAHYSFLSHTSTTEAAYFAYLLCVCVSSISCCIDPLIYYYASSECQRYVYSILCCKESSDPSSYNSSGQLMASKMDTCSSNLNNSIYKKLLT

human platelets = experiment: Functional screen of hybridoma supernatants by platelet aggregation assay; format: cell-based; settings: aggregation as % of control
Method: Platelet aggregation was measured by light transmission aggregometry in a 96-well plate format. Human isolated platelets (2×10^8/ml) were pre-treated for 10 mins at 37° C. with dimethylsulfoxide (DMSO) (1% v/v), the PAR1 antagonist vorapaxar (90 nM), the anti-PAR4 antibody 5RC3 (20-100 μg/ml), or a combination of vorapaxar and 5RC3. Platelets were treated with one of thrombin (0.1 U/ml) and aggregation was analysed at 37° C. in a FLUOstar OPTIMA plate reader (BMG Labtech) using a 595 nm excitation filter, for a period of 50 min (10 read cycles with 5 min double orbital shake period between each read). Optical density was normalised against the blank (maximum) and unstimulated platelets (minimum) and expressed as % maximum.
Thrombin-induced platelet aggregation in the presence of a PAR1 antagonist (i.e. PAR4-dependent aggregation) is shown for 30 monoclonal antibody supernatants binding to human platelets. Antibody supernatant was mixed with human platelets (2×10^8 cells) at a 1:1 ratio.

PAR2 = molecular target: T2, PAR2 (Homo sapiens, UniProt P55085); experiment: ELISA binding ratio to PAR2; settings: second screening
T2 construct: host or cells: synthetic peptide
Method: (§1) 96-well ELISA plates were coated with 50 μl of antigen diluted to a concentration of 4 μg/ml in coating buffer (0.1M Sodium Hydrogen Carbonate (NaHCO3) (Merck, #1.06329.0500)). Plates were incubated overnight at 4° C.
(§2) Wells were then washed with an automated plate washer (300 μl 1×PBS, 3 times). The wells were blocked with 200 μl of blocking buffer (3% BSA/1×PBS (BSA: (Sigma, #1001647742)) for 1 hour at room temperature followed by washing as above.
(§3) 50 μl of undiluted hybridoma cell culture supernatant was added into appropriate wells and incubated at room temperature for 1 hour followed by washing as above. […] Wells were washed as above. A set of substrate tablets (1×silver, 1×gold) into 20 ml of ddH20 by shaking vigorously on the thermomixer for 6 mins at room temperature. 50 μl of substrate ([…]™ p-Nitrophenyl phosphate Tablets (Sigma-Aldrich, N2770-50SET)) was added into each well and incubated for 20-25 mins at room temperature. 50 μl of STOP solution (2M Sodium Hydroxide, Solid (NaOH) (Merck, Cas #1310-73-2)) was added into each well to stop the reaction. Absorbance was read at 405 nm immediately after adding STOP solution with the ELISA reader, using the ‘RdrOle4’ software.

[1] = molecular target: T3, human PAR4 containing an N-terminal FLAG tag (Homo sapiens, UniProt Q96RI0); experiment: PAR4 thrombin cleavage assay, FLAG-tagged PAR4 on HEK293 cells, flow cytometry; format: cell-based
T3 construct: expressed in transfected cells; host or cells: HEK293 / HEK293T
T3 sequence (Q96RI0 18-385): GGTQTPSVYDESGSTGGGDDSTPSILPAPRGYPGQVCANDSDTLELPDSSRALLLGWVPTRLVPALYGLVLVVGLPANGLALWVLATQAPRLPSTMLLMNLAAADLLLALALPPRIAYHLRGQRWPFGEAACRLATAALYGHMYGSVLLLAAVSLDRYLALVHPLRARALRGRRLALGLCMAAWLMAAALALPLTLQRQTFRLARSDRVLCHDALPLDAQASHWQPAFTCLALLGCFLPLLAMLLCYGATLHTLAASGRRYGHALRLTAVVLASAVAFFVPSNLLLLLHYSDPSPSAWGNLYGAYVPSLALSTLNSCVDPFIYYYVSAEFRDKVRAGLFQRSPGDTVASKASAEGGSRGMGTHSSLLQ
Method: 1×10^6 HEK293T cells (in Dulbecco's modified eagle's medium+10% foetal calf serum) were seeded onto 12-well plates 24 hours before transfection. When confluent, they were transiently transfected with 1 μg of DNA from one of the PAR4 variants (expression vectors pBJ-FLAG-PAR4-120A-296F or pBJ-FLAG-PAR4-120T-296F; Edelstein et al (2014) Blood 124(23):3450-8) plus 4 μL of Lipofectamine 2000, as per manufacturer's instructions. Forty-eight hours after transfection, cells were harvested and washed twice with PBS, then resuspended to a count of 1×10^6/mL. Cells (50 μL assays/0.5×10^5 cells per condition) were then pre-treated with either 1, 10 or 100 μg/mL of 5RC3 or sub-clone 5A.RC3.F10b.H4b or 100 μg/mL matched Isotype control (mouse IgG1) for 15 minutes at 37° C. Cells were then stimulated with 2 U/mL of thrombin for 10 minutes. The reaction was stopped by the addition of 4 U/mL hirudin. Cells were then washed once and resuspended with PBS containing a 1:200 dilution of FITC anti-FLAG antibody (Sigma, clone M2) and incubated for 1 hour at room temperature in the dark. Cells were then fixed with 1% paraformaldehyde (final concentration) and read on a FACSCalibur flow cytometer to determine % of FL1/FITC-Positive events. Data were normalised against the resting sample (100%, no thrombin treatment).
Monoclonal antibody hybridoma supernatants (MoB5ARC3, MoB5BRB4, MoB5BRC6, MoB5BRH3 and MoB5CRC4) were screened for their ability to […] intact PAR4 present on the surface of HEK293 cells transfected with human PAR4 containing an N-terminal FLAG tag.
[…] Cleavage of PAR4 by thrombin was measured by loss of FLAG tag from the PAR4 expression HEK293T cells using flow cytometry.

native PAR4 peptide = molecular target: T4, native PAR4 peptide (Homo sapiens, UniProt Q96RI0); experiment: ELISA screening of hybridoma supernatants, native vs KLH-linked PAR4 peptide; format: binding; settings: first screening; clone; hybridoma supernatant
T4 construct: host or cells: synthetic peptide
Method: as §1, §2, §3

T2 sequence (P55085 with tags, fused parts or gaps limits assumed): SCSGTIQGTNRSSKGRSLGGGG

Molecule: CCOC(=O)N[C@@H]1CC[C@@H]2[C@@H](C1)C[C@H]1C(=O)O[C@H](C)[C@H]1[C@H]2/C=C/c1ccc(-c2cccc(F)c2)cn1 [vorapaxar]
intracranial bleeding (PAR1): significantly increased rates of intracranial bleeding

B1: MoB5G G1: hybridoma supernatant clone, second screening; likely parent of 5G.RG1 (antibody, V domains shown)
VH: QVQLVESGGGVVQPGRSLRLSCVASGFTLSSYGMHWVRQAPGKGLEWVAVIWYDGSSKYYTDSVKGRFDISRDNSKNTLYLQMNILRAEDTAVYYCARETILIGGVPFDYWGQGTLVTVSS
VL: EIVLTQSPGTLSLSPGERATLSCGASQSIRSNYLAWYQQKPGQAPRLLIYGASSRATGTPDRFSGSGSGTDFTLTITRLEPEDFALYYCQQYGRSYTFGQGTKLEIK
Functional screen on hybridoma supernatants (human platelets): Yes (+++) (aggregation <25% of control)
Binding to PAR2 ratio (PAR2): 1.0

The next lines start with results.

blocked thrombin-induced cleavage of PAR4 ([1]; initial screen of hybridoma supernatants, thrombin 2 U/ml for 10 mins): at least 90%
Fold binding native vs KLH-linked PAR4 peptide (native PAR4 peptide): 19.9
B2: MoB5AR C3: parent hybridoma clone (supernatant) from which 5A.RC3.F10b.H4b was sub-cloned (antibody, V domains shown)
VH: QVQLVESGGGVVQPGRSLRLSCAASGFTLSNYGMHWVRQAPGKGLEWVSVIWYDGSNKHYADSVKGRFTISRDNSKNTLYLQMNSLRAEDTAVYYCARESIVEVLPPFDYWGQGTLVTVSS
VL: KIVLTQSPGTLSLSPGERVTLSCRASQRVRNNYLAWFQQKPGQAPRLFIYGASSRATGIPDRFSGSGSGTDFIFTISRLEPEDFAVYYCQQYGNSYTFGQGTKLEIK
modifications: VH of 5A.RC3; VL of 5A.RC3
notes: parent hybridoma clone (supernatant) from which 5A.RC3.F10b.H4b was sub-cloned
Functional screen on hybridoma supernatants that exhibited binding ([1]; % of uncleaved PAR4 peptide expressed on HEK293 cells): Yes (Hybridoma supernatants that demonstrated greater than 70% of uncleaved PAR4 were considered positive)
block of thrombin-induced cleavage of PAR4 ([1]; initial screen, thrombin 2 U/ml for 10 mins): almost completely blocked thrombin-induced cleavage of PAR4

Binding to PAR2 ratio (PAR2): 1.3
B3: MoB5F E6: hybridoma supernatant clone, second screening; likely parent of 5F.RE6 (antibody, V domains shown)
VH: QVQLAESGGGVVQPGRSLRVSCAASGFTFSSYGMHWVRQAPGKGLEWVAVIWYDGTKKYYADSLKGRFTISRDNSKYTLYLQMNSLRADDTALYFCARKGARGITGLDYWGQGTLVTVSS
VL: DIQMTQSPSSLSASAGDRITITCRASQSISNYLNWYQQKPGKAPKLLIYAASSLQSGVPSRFSGSGSGTDFTLTISSLQPEDFASYYCRQNYNTPLTFGGGTKVEIK
Functional screen on hybridoma supernatants (human platelets): Yes (+) (aggregation between 50-80% of control)
